In patent publication US20220144895A1, “DE NOVO DESIGN OF TUNABLE PH-DRIVEN CONFORMATIONAL SWITCHES” (University of Washington, priority 2019, published 2022):
Entries after “also recorded” stand apart in the source; their conditions may differ.

Test: Native mass spectrometry of pH-induced changes in oligomeric state
Format: physicochemical
Details: for pH transition point of disassembly (pH set point, pH0): evaluated from pH 7 down to pH 3; for reversibility of disassembly: pH lowered with acetic acid, then raised by ammonia or buffer exchange; for cooperativity of the pH-induced transition: native MS at different pH values
Description: Samples were buffer exchanged twice into 200 mM ammonium acetate (NH4Ac; MilliporeSigma) using Micro Bio-Spin P-6 columns (Bio-Rad). Protein concentrations were determined by UV absorbance using a Nanodrop 2000c spectrophotometer (Thermo Fisher Scientific) and diluted to make up a 10-fold stock solution (50 μM and 16.7 μM monomer and trimer concentration, respectively). 1 μL of this solution was mixed with 9 μL 200 mM NH4Ac/50 mM triethylammonium acetate (TEAA; MilliporeSigma), adjusted with acetic acid (Fisher Scientific) to obtain the desired final pH and incubated on ice for 30 min. […] 5 μL samples were filled into an in-house pulled glass capillary and ionized by nESI at a monomer or a trimer concentration of 5 μM or 1.67 μM respectively. All pH titration data were acquired on an in-house modified SYNAPT® G2 HDMS (Waters Corporation) with a surface-induced dissociation (SID) device incorporated between a truncated trap traveling wave ion guide and the ion mobility cell (39). The following instrument parameters were used spray voltage 0.9-1.3 kV; sampling cone, 20 V; extraction cone, 2 V; source temperature, room temperature; trap gas flow, 4 mL/min; trap bins, 45V. The data were processed with MassLynx™ v4.1 and DriftScope™ v2.1. For relative quantification, charge state series were extracted from DriftScope™, and smoothed spectra (mean; window 20; number of smooths 20) were integrated.
Python scripts were written to generate theoretical models according Equation 1, and curve-fitting to native mass spectrometry data (FIGS. 1, 3, 5) according to Equation 2 by nonlinear least squares using curve fit from scipy.optimize. The free energy estimates for individual n, m, and l layers used in Equation 1 modeling were estimated by solving linear equations as follows: values for the free energy of folding for designs pRO-2 and variants were estimated from GdmCl denaturation experiments (FIG. 11); each of these designs have different numbers of n, m, and l layers, thus series of linear equations relating the number of each layer type to the total free energies of folding were solved to estimate dG values of the individual layers of each type.

B1: pRO-2.1: pRO-2 variant, SEQ ID NO: 3-4 (protein)
chain 1: MGSHHHHHHGSGSENLYFQGSEYEIRKALEELKAALAELKRATASLRAITEELKKNPSEDALVEHNRAIVEHNAIIVEVLRIIAAVLELIVRAIK
chain 2: SEYEIRKALEELKAALAELKRATASLRAITEELKKNPSEDALVEHNRAIVEHNAIIVEVLRIIAAVLELIVRAIK
Native MS
  pH transition point of disassembly (pH set point, pH0): ~3.5 pH

B2: pRO-2.2: pRO-2 variant, SEQ ID NO: 5-6 (protein)
chain 1: MGSHHHHHHGSGSENLYFQGSEYEIRKALEELKAALAELKRATASLRAILEELKKNPSEDAIVEAIRAIVEHNAIIVEVLRIIAAVLELIVRAIK
chain 2: SEYEIRKALEELKAALAELKRATASLRAILEELKKNPSEDAIVEAIRAIVEHNAIIVEVLRIIAAVLELIVRAIK
Native MS, pH ~7 to ~3
  pH response of oligomeric state (pH-induced disassembly): eliminates the pH response altogether; also recorded: no significant pH response

B3: pRO-2.3: pRO-2 variant, SEQ ID NO: 7-8 (protein)
chain 1: MGSHHHHHHGSGSENLYFQGSEYEIRKALEELKASTAELKRATASLRAITEELKKNPSEDALVEHNRAIVEHNAIIVENNRIIAAVLELIVRAIK
chain 2: SEYEIRKALEELKASTAELKRATASLRAITEELKKNPSEDALVEHNRAIVEHNAIIVENNRIIAAVLELIVRAIK
  reversibility of disassembly: Re-association was induced

B4: pRO-2.4: pRO-2 variant, SEQ ID NO: 9-10 (protein)
chain 1: MGSHHHHHHGSGSENLYFQGSEYEIRKALEELKAATAELKRATASLRASTEELKKNPSEDALVENNRLIVEHNAIIVEHNRIIAAVLELIVRAIK
chain 2: SEYEIRKALEELKAATAELKRATASLRASTEELKKNPSEDALVENNRLIVEHNAIIVEHNRIIAAVLELIVRAIK
  cooperativity of the pH-induced transition: less cooperative
  reversibility of disassembly: Re-association was induced
Native MS
  pH transition point of disassembly (pH set point, pH0): higher transition pH

B5: pRO-4: designed heterodimer, SEQ ID NO: 27-28, chains 81 and 82 (protein)
chain 1: MDEEDHLKKLKTHLEKLERHLKLLEDHAKKLEDILKERPEDSAVKESIDELRRSIELVRESIEIFRQSVEEEEGSSHHHHHHSSGENLYFQGDVKELTKILDTLTKILETATKVIKDATKLLEEHRKSDKPDPRLIETHKKLVEEHETLVRQHKELAEEHLKRTR
chain 2: MDEEDHLKKLKTHLEKLERHLKLLEDHAKKLEDILKERPEDSAVKESIDELRRSIELVRESIEIFRQSVEEEEGDVKELTKILDTLTKILETATKVIKDATKLLEEHRKSDKPDPRLIETHKKLVEEHETLVRQHKELAEEHLKRTR
chain 3: MDEEDHLKKLKTHLEKLERHLKLLEDHAKKLEDILKERPEDSAVKESIDELRRSIELVRESIEIFRQSVEEEE
chain 4: GSSHHHHHHSSGENLYFQGDVKELTKILDTLTKILETATKVIKDATKLLEEHRKSDKPDPRLIETHKKLVEEHETLVRQHKELAEEHLKRTR
modifications: Synthetic polpypeptide; (1)..(18) Optional residues
Native MS
  pH transition point of disassembly (pH set point, pH0): ~4 pH

B6: pRO-4 L23A/V130A: pRO-4 mutant heterodimer, SEQ ID NO: 29-30, 83-84 (protein)
chain 1: MDEEDHLKKLKTHLEKLERHLKLAEDHAKKLEDILKERPEDSAVKESIDELRRSIELVRESIEIFRQSVEEEEGSSHHHHHHSSGENLYFQGDVKELTKILDTLTKILETATKVIKDATKLLEEHRKSDKPDPRLIETHKKLVEEHETLARQHKELAEEHLKRTR
chain 2: MDEEDHLKKLKTHLEKLERHLKLAEDHAKKLEDILKERPEDSAVKESIDELRRSIELVRESIEIFRQSVEEEEGDVKELTKILDTLTKILETATKVIKDATKLLEEHRKSDKPDPRLIETHKKLVEEHETLARQHKELAEEHLKRTR
chain 3: MDEEDHLKKLKTHLEKLERHLKLAEDHAKKLEDILKERPEDSAVKESIDELRRSIELVRESIEIFRQSVEEEE
chain 4: GSSHHHHHHSSGENLYFQGDVKELTKILDTLTKILETATKVIKDATKLLEEHRKSDKPDPRLIETHKKLVEEHETLARQHKELAEEHLKRTR
modifications: Synthetic polpypeptide; (1)..(18) Optional residues
Native MS
  pH transition point of disassembly (pH set point, pH0): ~4.6 pH

B7: pRO-2.3-GS: pRO-2.3 with flexible GS loop, SEQ ID NO: 35-36 (protein)
chain 1: MGSHHHHHHGSGSENLYFQGSEYEIRKALEELKASTAELKRATASLRAITEELKKGGSGSGSEDALVEHNRAIVEHNAIIVENNRIIAAVLELIVRAIK
chain 2: GSEYEIRKALEELKASTAELKRATASLRAITEELKKGGSGSGSEDALVEHNRAIVEHNAIIVENNRIIAAVLELIVRAIK
Native MS
  oligomeric state at pH 7 / neutral pH: retains its trimeric assembly at neutral pH
  cooperativity of the pH-induced transition: less cooperativity

B8: pRO-2-GS: pRO-2 with flexible GS loop, SEQ ID NO: 33-34 (protein)
chain 1: MGSHHHHHHGSGSENLYFQGSEYEIRKALEELKAATAELKRATASLRAITEELKKGGSGSGSEDALVEHNRAIVEHNAIIVEHNRIIAAVLELIVRAIK
chain 2: GSEYEIRKALEELKAATAELKRATASLRAITEELKKGGSGSGSEDALVEHNRAIVEHNAIIVEHNRIIAAVLELIVRAIK
Native MS
  oligomeric state at pH 7 / neutral pH: loses its homogenous trimeric assembly at neutral pH
